According to FireProtDB (doi:10.1093/protein/gzw068):

B1: P244A, Q93D82 (parent)
chain: MSTAIVTNVKHFGGMGSALRLSEAGHTVACHDESFKQKDELEAFAETYPQLKPMSEQEPAELIEAVTSAYGQVDVLVSNDIFAPEFQPIDKYAVEDYRGAVEALQIRPFALVNAVASQMKKRKSGHIIFITSATPFGPWKELSTYTSARAGACTLANALSKELGEYNIPVFAIGPNYLHSEDSPYFYPTEPWKTNPEHVAHVKKVTALQRLGTQKELGELVAFLASGSCDYLTGQVFWLAGGFPMIERWPGMPE

Variants of: B1
Conditions: Rhizobium radiobacter; pH 7.7; Thermal; CD; Phosphate 5mM; structure 1PWX; whole UniProt chain shown

| Variant | Tm [°C] | change of melting temperature, mutant - wild type (higher = more stable) [°C] |
| --- | --- | --- |
| P244A | 67 | 2 |
| A60Y | 64.5 | -0.5 |
| A60L | 63 | -2 |
| A60K | 61 | -4 |
| A60R | 66.5 | 1.5 |
| C229A | 60.5 | -4.5 |
| T134I | 63.5 | -1.5 |
| T134W | 64 | -1 |
| T134V | 68 | 3 |
| V205L | 63.5 | -1.5 |
| S117K | 65 | 0 |
| S117A | 63.5 | -1.5 |
| S160A | 64.5 | -0.5 |
| E61R | 64.5 | -0.5 |
| E61K | 68.5 | 3.5 |
| E61Q | 66.5 | 1.5 |
| A69M | 62.5 | -2.5 |
| A69K | 63.5 | -1.5 |
| A69R | 65.5 | 0.5 |
| A69H | 64.5 | -0.5 |
| A69L | 64.5 | -0.5 |
| E64A | 66 | 1 |
| E64K | 65 | 0 |

| Variant | Tm [°C] | change of melting temperature, mutant - wild type (higher = more stable) [°C] |
| --- | --- | --- |
| E64Q | 66 | 1 |
| K161F | 64 | -1 |
| T213N | 61.5 | -3.5 |
| T213D | 62 | -3 |
| C153V | 50.5 | -14.5 |
| C153N | 78.5 | 13.5 |
| C153I | 60 | -5 |
| C153L | 63 | -2 |
| C153H | 53.5 | -11.5 |
| E56A | 65 | 0 |
| N113H | 63 | -2 |
| N113Q | 61.5 | -3.5 |
| E58N | 65 | 0 |
| E58Q | 67.5 | 2.5 |
| G99R | 55.5 | -9.5 |
| G99H | 65 | 0 |
| G99D | 65 | 0 |
| G99A | 66 | 1 |
| E190T | 66.5 | 1.5 |
| E190L | 65.5 | 0.5 |
| A83M | 65.5 | 0.5 |
| A83N | 63 | -2 |
| A83Q | 65.5 | 0.5 |

| Variant | Tm [°C] | change of melting temperature, mutant - wild type (higher = more stable) [°C] |
| --- | --- | --- |
| A158V | 71 | 6 |
| F82W | 59 | -6 |
| T194Q | 61 | -4 |
| H126V | 64.5 | -0.5 |
| H126Y | 63.5 | -1.5 |
| V199K | 66.5 | 1.5 |
| D230N | 62 | -3 |
| S143V | 59.5 | -5.5 |
| P253G | 64.5 | -0.5 |
| P253S | 62.5 | -2.5 |
| S228K | 64.5 | -0.5 |
| S228R | 64.5 | -0.5 |
| S55P | 65 | 0 |
| K123H | 65.5 | 0.5 |
| L111W | 57 | -8 |
| D182F | 63 | -2 |
| E165A | 65.5 | 0.5 |
| E165P | 57.5 | -7.5 |
| E197K | 67.5 | 2.5 |
| F86W | 64.5 | -0.5 |
| K193L | 65 | 0 |
| V236I | 66.5 | 1.5 |
| E85Y | 64.5 | -0.5 |

| Variant | Tm [°C] | change of melting temperature, mutant - wild type (higher = more stable) [°C] |
| --- | --- | --- |
| Y48F | 65.5 | 0.5 |
| Q209H | 58 | -7 |
| A93K | 70.5 | 5.5 |
| A93T | 69.5 | 4.5 |
| A93N | 69 | 4 |
| K91Q | 61 | -4 |
| T47S | 64.5 | -0.5 |
| A200Y | 62.5 | -2.5 |
| A103Y | 60.5 | -4.5 |
| A103Q | 61 | -4 |
| F136W | 60.5 | -4.5 |
| R107Q | 65 | 0 |
| D80E | 60 | -5 |
| D80V | 64 | -1 |
| V94L | 63.5 | -1.5 |
| Y70F | 65.5 | 0.5 |
| N195H | 64.5 | -0.5 |
| N195V | 59 | -6 |
| E219N | 63.5 | -1.5 |
| K140S | 62.5 | -2.5 |
| K140P | 54.5 | -10.5 |
| T67Q | 63.5 | -1.5 |
| V75I | 65 | 0 |

| Variant | Tm [°C] | change of melting temperature, mutant - wild type (higher = more stable) [°C] |
| --- | --- | --- |
| Q87R | 68.5 | 3.5 |
| Q87L | 62.5 | -2.5 |
| S68Q | 63 | -2 |
| S68R | 66.5 | 1.5 |
| S68N | 65.5 | 0.5 |
| S68K | 65 | 0 |
| M54F | 63.5 | -1.5 |
| T144I | 57 | -8 |
| H198Y | 62.5 | -2.5 |
| H198M | 55 | -10 |
| T154L | 58.5 | -6.5 |
| T154I | 62 | -3 |
| T154V | 62 | -3 |
| R98L | 65 | 0 |
| R98I | 64.5 | -0.5 |
| E247P | 66 | 1 |
| E247Y | 63 | -2 |
| N157W | 56 | -9 |
| N157R | 60 | -5 |
| N157F | 64 | -1 |
| V77I | 64 | -1 |
| E141Q | 56 | -9 |
| D96H | 56 | -9 |
